Among the data in patent US20120107952A1 are peak luminescence intensity in serum relative to buffer, peak luminescence intensity in whole blood relative to buffer and final luminescence intensity values, retold here.

Assay [1] has as its target Bovine-biotinamidocaproyl-labeled Albumin (biotinylated-BSA) (bovine) (UniProt P02769). Kind of assay: MA-SPCL, 33 nM Qdots-streptavidin on biotinylated-BSA coated gold disk, in serum, 655 nm, 217 degrees.
For assay [2] the target is unchanged. Kind of assay: MA-SPCL, 33 nM Qdots-streptavidin on biotinylated-BSA coated gold disk, in whole blood, 655 nm, 217 degrees.
For assay [3] the target is unchanged. Kind of assay: MA-SPCL, 33 nM Qdots-streptavidin on biotinylated-BSA coated gold disk, emission at 217 degrees; similar after 30 min at room temperature.

Sequence of UniProt P02769 (P02769 25-607 limits assumed): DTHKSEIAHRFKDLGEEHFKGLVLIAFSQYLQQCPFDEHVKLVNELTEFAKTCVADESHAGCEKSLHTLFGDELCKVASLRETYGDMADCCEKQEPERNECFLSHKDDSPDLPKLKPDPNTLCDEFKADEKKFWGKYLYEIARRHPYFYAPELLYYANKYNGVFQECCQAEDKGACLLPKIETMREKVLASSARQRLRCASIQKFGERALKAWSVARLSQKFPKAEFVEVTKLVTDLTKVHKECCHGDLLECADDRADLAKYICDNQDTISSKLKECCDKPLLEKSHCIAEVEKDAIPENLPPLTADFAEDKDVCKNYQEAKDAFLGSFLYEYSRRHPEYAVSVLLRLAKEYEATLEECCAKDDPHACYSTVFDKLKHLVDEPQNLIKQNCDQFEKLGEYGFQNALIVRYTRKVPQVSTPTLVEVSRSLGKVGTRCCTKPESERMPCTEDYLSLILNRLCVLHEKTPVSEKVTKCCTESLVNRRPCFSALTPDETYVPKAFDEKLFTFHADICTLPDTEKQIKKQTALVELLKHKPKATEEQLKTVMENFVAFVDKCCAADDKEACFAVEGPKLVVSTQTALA

“Quantum dot 655-labeled streptavidin (Qdots-streptavidin) (from UniProt P22629 37-163)” had a peak luminescence intensity in serum relative to buffer in assay [1] of 75%. Further, the peak luminescence intensity in whole blood relative to buffer in assay [2] was determined as 20%. In addition, in assay [3], the final luminescence intensity was 150 au.
